This is an account of results in US20130315910A1 (Xencor, published 2013).

The target in assay [1] is T1, human FcγRIIa (131R), His- and GST-tagged (human, UniProt P12318 34-217).
T1 construct: Expressed in HEK293T cells, purified by nickel chromatography; also called R131 FcγRIIa; not shown: 6xHis and GST tags of the pTT5 vector
T1 sequence (looked up): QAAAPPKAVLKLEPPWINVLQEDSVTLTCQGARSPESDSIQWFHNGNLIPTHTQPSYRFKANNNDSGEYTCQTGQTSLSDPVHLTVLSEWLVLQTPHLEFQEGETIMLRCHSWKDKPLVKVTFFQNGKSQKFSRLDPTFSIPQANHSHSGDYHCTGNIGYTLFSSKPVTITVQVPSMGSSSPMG
The assay is described as follows: SPR. For orientation: SPR reads the build-up and loss of mass on a sensor chip optically.

For assay [2], the target named is T2, human FcγRI receptor protein (R&D Systems) (human, UniProt P12314 16-288).
T2 construct: also called soluble FcγRI; solFcγRI
T2 sequence (P12314 16-288 limits assumed): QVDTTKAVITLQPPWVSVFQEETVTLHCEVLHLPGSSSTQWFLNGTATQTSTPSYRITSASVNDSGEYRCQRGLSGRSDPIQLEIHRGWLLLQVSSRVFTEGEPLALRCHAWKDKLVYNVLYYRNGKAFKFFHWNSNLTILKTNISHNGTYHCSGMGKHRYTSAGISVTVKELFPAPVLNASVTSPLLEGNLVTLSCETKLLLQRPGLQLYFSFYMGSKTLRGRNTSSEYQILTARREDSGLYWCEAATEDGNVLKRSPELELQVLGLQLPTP
The assay is described as follows: SPR.

Assay [3] deals with T3, human FcγRIIb receptor protein (R&D Systems) (human, UniProt P31994 46-217).
T3 construct: Bought protein injected over captured antibody in Biacore; also called CD32b
T3 sequence (looked up): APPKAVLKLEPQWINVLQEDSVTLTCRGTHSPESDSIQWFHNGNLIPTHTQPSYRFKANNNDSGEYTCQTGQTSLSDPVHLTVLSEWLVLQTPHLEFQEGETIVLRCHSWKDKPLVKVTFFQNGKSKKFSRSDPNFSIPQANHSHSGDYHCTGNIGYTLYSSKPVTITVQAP
In words: SPR.

For assay [4], the target named is T4, human FcγRIIa (131H), His- and GST-tagged (human, UniProt P12318 34-217).
T4 construct: also called H131 FcγRIIa; HIIa; not shown: 6xHis and GST tags of the pTT5 vector
T4 sequence (looked up): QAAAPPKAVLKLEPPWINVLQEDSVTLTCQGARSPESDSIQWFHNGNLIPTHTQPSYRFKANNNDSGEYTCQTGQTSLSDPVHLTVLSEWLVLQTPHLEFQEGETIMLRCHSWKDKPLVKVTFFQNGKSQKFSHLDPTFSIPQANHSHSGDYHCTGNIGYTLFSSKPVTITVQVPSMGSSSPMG
In words: SPR.

Assay [5] addresses T5, human FcγRIIIa (158V), His- and GST-tagged (human, UniProt P08637 17-208).
T5 construct: also called V158 FcγRIIIa; VIIIa; not shown: 6xHis and GST tags of the pTT5 vector
The assay is described as follows: SPR.

Assay [6] has as its target T6, mFcγRIV.
T6 construct: also called mouse FcγRIV; not shown: C-terminal His and GST tags (named only on our card)
T6 chain: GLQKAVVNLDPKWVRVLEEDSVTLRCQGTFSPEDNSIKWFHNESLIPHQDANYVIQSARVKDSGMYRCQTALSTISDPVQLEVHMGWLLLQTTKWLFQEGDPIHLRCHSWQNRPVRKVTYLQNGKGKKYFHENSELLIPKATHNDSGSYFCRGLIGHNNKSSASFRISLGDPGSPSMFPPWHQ
In words: SPR, off-rate.

Assay [7] concerns the target T7, cynoFcγRIIIa (Macaca fascicularis, UniProt Q8SPW2).
T7 construct: extracellular region, C-terminal His- and GST-tag; also called cynomolgus monkey FcγRIIIa
In words: SPR, off-rate.

Assay [8] deals with T8, mFcγRIIb (Mus musculus, UniProt P08101).
T8 construct: extracellular region, C-terminal His- and GST-tag; also called mouse FcγRII
T8 sequence (receptor extracellular region, looked up): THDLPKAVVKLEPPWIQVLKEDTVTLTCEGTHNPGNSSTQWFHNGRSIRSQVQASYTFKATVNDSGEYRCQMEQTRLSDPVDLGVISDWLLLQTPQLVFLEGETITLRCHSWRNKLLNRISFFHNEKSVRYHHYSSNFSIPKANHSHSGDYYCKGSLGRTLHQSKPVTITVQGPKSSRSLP
The assay is described as follows: SPR, off-rate.

Assay [9] deals with T9, cynoFcγRIIb (Macaca fascicularis, UniProt A0A140HDP4).
T9 construct: extracellular region, C-terminal His- and GST-tag; also called cynomolgus monkey FcγRIIb
T9 sequence (receptor extracellular region): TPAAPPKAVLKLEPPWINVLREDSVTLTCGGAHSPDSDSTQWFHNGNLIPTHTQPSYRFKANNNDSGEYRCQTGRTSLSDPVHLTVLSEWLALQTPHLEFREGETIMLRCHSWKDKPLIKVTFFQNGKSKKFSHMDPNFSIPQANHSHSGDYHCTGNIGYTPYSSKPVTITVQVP
The assay is described as follows: SPR, off-rate.

For assay [10], the target named is T10, human FcγRIIIa (158F), His- and GST-tagged (human, UniProt P08637 17-208).
T10 construct: also called F158 FcγRIIIa; not shown: 6xHis and GST tags of the pTT5 vector
T10 sequence (P08637 17-208): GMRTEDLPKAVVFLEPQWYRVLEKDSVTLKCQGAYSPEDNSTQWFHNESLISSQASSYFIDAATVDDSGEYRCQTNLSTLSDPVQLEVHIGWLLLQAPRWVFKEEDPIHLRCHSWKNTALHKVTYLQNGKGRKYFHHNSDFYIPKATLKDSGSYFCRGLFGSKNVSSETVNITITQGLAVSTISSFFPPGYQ
In words: SPR.

Assay [11] deals with T6, mFcγRIV. In words: SPR.
In assay [12] the target is T7, cynoFcγRIIIa. The assay is described as follows: SPR.
Assay [13] addresses T8, mFcγRIIb. The assay is described as follows: SPR.
In assay [14] the target is T9, cynoFcγRIIb. The assay is described as follows: SPR.
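Wherever Fold vs WT IgG1 (off-rate) is given: fold improvement over WT IgG1 so higher means slower dissociation than WT.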

T7 sequence (Q8SPW2 17-208): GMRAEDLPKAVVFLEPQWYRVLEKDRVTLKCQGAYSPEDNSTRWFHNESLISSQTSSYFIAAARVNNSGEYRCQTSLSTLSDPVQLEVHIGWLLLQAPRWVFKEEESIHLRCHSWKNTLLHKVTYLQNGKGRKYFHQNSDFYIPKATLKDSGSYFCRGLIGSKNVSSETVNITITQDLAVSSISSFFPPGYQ
T5 sequence (P08637 17-208 F176V): as the sequence (P08637 17-208) above, with F160V counted along it

B1: G237A (antibody, human IgG1, kappa)
heavy: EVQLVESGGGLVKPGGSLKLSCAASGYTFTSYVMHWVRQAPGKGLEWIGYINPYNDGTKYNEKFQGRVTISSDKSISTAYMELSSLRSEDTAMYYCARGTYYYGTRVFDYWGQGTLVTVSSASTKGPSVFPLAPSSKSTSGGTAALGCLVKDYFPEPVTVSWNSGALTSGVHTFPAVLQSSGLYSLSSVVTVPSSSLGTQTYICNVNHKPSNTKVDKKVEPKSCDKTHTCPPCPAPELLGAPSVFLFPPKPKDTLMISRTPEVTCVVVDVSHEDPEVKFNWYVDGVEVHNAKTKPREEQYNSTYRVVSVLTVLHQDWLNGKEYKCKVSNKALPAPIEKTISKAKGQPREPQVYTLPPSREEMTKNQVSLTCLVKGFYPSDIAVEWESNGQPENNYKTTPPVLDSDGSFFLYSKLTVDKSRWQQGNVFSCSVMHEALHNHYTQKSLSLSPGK
light: DIVMTQSPATLSLSPGERATLSCRSSKSLQNVNGNTYLYWFQQKPGQSPQLLIYRMSNLNSGVPDRFSGSGSGTEFTLTISSLEPEDFAVYYCMQHLEYPITFGAGTKLEIKRTVAAPSVFIFPPSDEQLKSGTASVVCLLNNFYPREAKVQWKVDNALQSGNSQESVTEQDSKDSTYSLSSTLTLSKADYEKHKVYACEVTHQGLSSPVTKSFNRGEC
notes: HuAM4G7 anti-CD19 IgG1 (m1) with this Fc substitution, EU index; copies: 2 + 2
As to B1, the figures for the “Fold vs WT IgG1” value in assay [1], in [2] and in [3] were 0.704 fold, 0.0108 fold and 0.191 fold, respectively. The Kd was 1220 nM in assay [1], 30.5 nM in assay [2] and 7680 nM in assay [3]. Further, the binding result (in assay [4]; in assay [5]; in the assay with mFcγRIV [6]; with cynoFcγRIIIa [7]; with mFcγRIIb [8]; with cynoFcγRIIb [9]) was “no binding” in each case.

B2: anti-CD19 antibody HuAM4G7 IgG1 ^236R/L328R (antibody)
heavy: EVQLVESGGGLVKPGGSLKLSCAASGYTFTSYVMHWVRQAPGKGLEWIGYINPYNDGTKYNEKFQGRVTISSDKSISTAYMELSSLRSEDTAMYYCARGTYYYGTRVFDYWGQGTLVTVSSASTKGPSVFPLAPSSKSTSGGTAALGCLVKDYFPEPVTVSWNSGALTSGVHTFPAVLQSSGLYSLSSVVTVPSSSLGTQTYICNVNHKPSNTKVDKKVEPKSCDKTHTCPPCPAPELLGRGPSVFLFPPKPKDTLMISRTPEVTCVVVDVSHEDPEVKFNWYVDGVEVHNAKTKPREEQYNSTYRVVSVLTVLHQDWLNGKEYKCKVSNKARPAPIEKTISKAKGQPREPQVYTLPPSREEMTKNQVSLTCLVKGFYPSDIAVEWESNGQPENNYKTTPPVLDSDGSFFLYSKLTVDKSRWQQGNVFSCSVMHEALHNHYTQKSLSLSPGK
light: DIVMTQSPATLSLSPGERATLSCRSSKSLQNVNGNTYLYWFQQKPGQSPQLLIYRMSNLNSGVPDRFSGSGSGTEFTLTISSLEPEDFAVYYCMQHLEYPITFGAGTKLEIKRTVAAPSVFIFPPSDEQLKSGTASVVCLLNNFYPREAKVQWKVDNALQSGNSQESVTEQDSKDSTYSLSSTLTLSKADYEKHKVYACEVTHQGLSSPVTKSFNRGEC
notes: also called Fc-KO; FcγR knockout
Regarding B2, the binding result in assay [1], in assay [2], in assay [3], in [4], in [10] and in [5] was “no binding” in each case.

B3: anti-CD19 antibody HuAM4G7 IgG1 G236R/L328R (antibody)
heavy: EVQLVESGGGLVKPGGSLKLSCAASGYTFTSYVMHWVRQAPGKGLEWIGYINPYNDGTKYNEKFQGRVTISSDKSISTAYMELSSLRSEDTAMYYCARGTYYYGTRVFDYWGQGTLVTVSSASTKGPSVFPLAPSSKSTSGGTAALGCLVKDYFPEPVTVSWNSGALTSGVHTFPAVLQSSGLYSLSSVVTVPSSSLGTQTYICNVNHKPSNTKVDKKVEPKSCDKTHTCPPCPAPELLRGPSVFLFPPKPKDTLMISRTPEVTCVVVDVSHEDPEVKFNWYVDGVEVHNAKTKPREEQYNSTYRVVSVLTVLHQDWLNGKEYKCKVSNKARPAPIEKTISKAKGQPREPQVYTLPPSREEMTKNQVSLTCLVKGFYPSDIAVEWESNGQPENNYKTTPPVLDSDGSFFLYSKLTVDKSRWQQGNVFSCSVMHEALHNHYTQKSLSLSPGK
light: DIVMTQSPATLSLSPGERATLSCRSSKSLQNVNGNTYLYWFQQKPGQSPQLLIYRMSNLNSGVPDRFSGSGSGTEFTLTISSLEPEDFAVYYCMQHLEYPITFGAGTKLEIKRTVAAPSVFIFPPSDEQLKSGTASVVCLLNNFYPREAKVQWKVDNALQSGNSQESVTEQDSKDSTYSLSSTLTLSKADYEKHKVYACEVTHQGLSSPVTKSFNRGEC
notes: Control knock out variant; Positions in EU numbering; also called Fc-KO; FcγR knockout
For the molecule B3, the binding result in assay [1], in assay [2], in assay [3], in [4], in assay [10] and in [5] was “no binding” throughout.

B4: anti-CD19 antibody HuAM4G7 IgG1 S239D/S267E (antibody)
heavy: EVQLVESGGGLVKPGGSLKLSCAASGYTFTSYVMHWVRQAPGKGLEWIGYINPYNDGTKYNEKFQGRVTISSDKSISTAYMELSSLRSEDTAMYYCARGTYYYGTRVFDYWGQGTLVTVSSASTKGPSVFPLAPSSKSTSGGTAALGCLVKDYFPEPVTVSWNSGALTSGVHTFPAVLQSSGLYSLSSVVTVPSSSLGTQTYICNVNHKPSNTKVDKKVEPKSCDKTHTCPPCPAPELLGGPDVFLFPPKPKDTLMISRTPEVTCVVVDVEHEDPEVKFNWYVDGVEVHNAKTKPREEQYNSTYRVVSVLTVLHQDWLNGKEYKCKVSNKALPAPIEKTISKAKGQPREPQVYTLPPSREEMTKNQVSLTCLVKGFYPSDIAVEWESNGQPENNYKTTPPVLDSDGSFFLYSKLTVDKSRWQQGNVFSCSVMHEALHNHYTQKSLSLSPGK
light: DIVMTQSPATLSLSPGERATLSCRSSKSLQNVNGNTYLYWFQQKPGQSPQLLIYRMSNLNSGVPDRFSGSGSGTEFTLTISSLEPEDFAVYYCMQHLEYPITFGAGTKLEIKRTVAAPSVFIFPPSDEQLKSGTASVVCLLNNFYPREAKVQWKVDNALQSGNSQESVTEQDSKDSTYSLSSTLTLSKADYEKHKVYACEVTHQGLSSPVTKSFNRGEC
notes: Positions in EU numbering; copies: 2 + 2
As for B4, the “Fold vs WT IgG1 (Kd)” value with mFcγRIV [11] worked out at 0.726 fold; with cynoFcγRIIIa [12], 3.88 fold; in the assay with mFcγRIIb [13], 1.75 fold; in the assay with cynoFcγRIIb [14], 1.59 fold. Besides, the “Fold vs WT IgG1 (off-rate)” value came to 1.54 fold with mFcγRIV [11], 1.68 fold with cynoFcγRIIIa [12], 7.87 fold with mFcγRIIb [13] and 2.53 fold with cynoFcγRIIb [14]. The “Fold vs WT IgG1” value in assay [1] stood at 120 fold; in assay [2], 23.2 fold; in assay [3], 111 fold; in assay [4], 1.27 fold; in assay [5], 3.74 fold. Further, the dissociation constant (Kd) amounted to 7.16 nM in [1]; 0.0142 nM in assay [2]; 13.3 nM in [3]; 510 nM in assay [4]; 516 nM in [10]; 51.2 nM in assay [5].

B5: V266D (antibody, human IgG1, kappa)
heavy: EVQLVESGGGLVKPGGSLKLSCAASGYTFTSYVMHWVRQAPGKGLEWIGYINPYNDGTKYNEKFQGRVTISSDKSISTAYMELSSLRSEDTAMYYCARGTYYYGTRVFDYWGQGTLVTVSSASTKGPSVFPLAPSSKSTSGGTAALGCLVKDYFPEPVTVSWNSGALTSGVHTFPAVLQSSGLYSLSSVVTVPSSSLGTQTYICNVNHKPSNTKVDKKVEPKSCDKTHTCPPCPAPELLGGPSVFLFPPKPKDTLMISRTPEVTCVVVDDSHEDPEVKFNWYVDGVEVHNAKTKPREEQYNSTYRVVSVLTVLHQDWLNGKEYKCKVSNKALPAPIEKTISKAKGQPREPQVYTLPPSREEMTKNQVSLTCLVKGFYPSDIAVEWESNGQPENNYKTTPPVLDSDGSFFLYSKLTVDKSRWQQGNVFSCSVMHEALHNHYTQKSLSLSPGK
light: DIVMTQSPATLSLSPGERATLSCRSSKSLQNVNGNTYLYWFQQKPGQSPQLLIYRMSNLNSGVPDRFSGSGSGTEFTLTISSLEPEDFAVYYCMQHLEYPITFGAGTKLEIKRTVAAPSVFIFPPSDEQLKSGTASVVCLLNNFYPREAKVQWKVDNALQSGNSQESVTEQDSKDSTYSLSSTLTLSKADYEKHKVYACEVTHQGLSSPVTKSFNRGEC
notes: as for B1
In the case of B5, the “Fold vs WT IgG1” value in assay [1] came out at 0.704 fold; in assay [3], 0.147 fold. Moreover, the results for the Kd in [1] and in assay [3] were 1220 nM and 10000 nM, respectively. Further, the binding result with mFcγRIV [6], in the assay with cynoFcγRIIIa [7], in the assay with mFcγRIIb [8] and in the assay with cynoFcγRIIb [9] was “no binding” in each case.

B6: anti-CD19 antibody HuAM4G7 IgG1 G236D/S267E (antibody)
heavy: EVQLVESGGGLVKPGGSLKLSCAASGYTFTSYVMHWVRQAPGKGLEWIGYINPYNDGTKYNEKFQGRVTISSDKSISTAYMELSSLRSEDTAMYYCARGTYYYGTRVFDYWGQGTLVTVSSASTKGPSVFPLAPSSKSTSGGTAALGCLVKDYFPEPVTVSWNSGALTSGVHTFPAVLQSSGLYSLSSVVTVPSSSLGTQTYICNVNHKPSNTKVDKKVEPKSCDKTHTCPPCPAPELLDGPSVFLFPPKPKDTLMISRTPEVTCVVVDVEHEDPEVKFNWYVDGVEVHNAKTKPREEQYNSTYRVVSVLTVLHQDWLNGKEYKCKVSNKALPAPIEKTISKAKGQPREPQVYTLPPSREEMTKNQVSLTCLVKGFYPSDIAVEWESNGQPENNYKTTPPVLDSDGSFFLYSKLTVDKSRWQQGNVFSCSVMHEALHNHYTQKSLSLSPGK
light: DIVMTQSPATLSLSPGERATLSCRSSKSLQNVNGNTYLYWFQQKPGQSPQLLIYRMSNLNSGVPDRFSGSGSGTEFTLTISSLEPEDFAVYYCMQHLEYPITFGAGTKLEIKRTVAAPSVFIFPPSDEQLKSGTASVVCLLNNFYPREAKVQWKVDNALQSGNSQESVTEQDSKDSTYSLSSTLTLSKADYEKHKVYACEVTHQGLSSPVTKSFNRGEC
notes: as for B4
With B6, the Kd turned out to be 3.71 nM in [2], 26.6 nM in [3], 2730 nM in [4] and 579 nM in assay [5]. The binding result with mFcγRIV [6], with cynoFcγRIIIa [7], with mFcγRIIb [8] and in the assay with cynoFcγRIIb [9] was “no binding” in each case.

The Kd is the constant that tells how readily two partners part at equilibrium. High values mean lower affinity, low ones higher affinity.
